In general, Km refers to the concentration of substrate that gives half-maximal velocity. As usually defined, the kcat is the number of substrate molecules converted per active site and unit of time at saturation. A word on the kcat/Km: it is the second-order rate constant that governs catalysis at low substrate concentration.

The text below walks through data of publication PMC6089974.

What all share (assay): purified protein
Substrate in series [1]: O=[N+]([O-])c1ccc(O[C@H]2O[C@H](CO)[C@H](O)[C@H](O)[C@H]2F)c([N+](=O)[O-])c1
Particulars: 50 mM HEPES pH 7.4, 37 °C, printed Km does not agree with printed kcat and kcat/Km (possible misprint).

Substrate in series [2]: O=[N+]([O-])c1ccc(O[C@H]2C=C(CO)[C@H](O)[C@H](O)[C@H]2F)c([N+](=O)[O-])c1
Particulars: 50 mM HEPES pH 7.4, 37 °C, covalent intermediate slowly hydrolysed, apparent binding constant.

Substrate in series [3]: O=[N+]([O-])c1ccc(O[C@H]2C=C(CO)[C@H](O)[C@H](O)[C@H]2O)c([N+](=O)[O-])c1
Particulars: 50 mM HEPES pH 7.4, 37 °C, covalent intermediate slowly hydrolysed, 3b equilibrates in D2O with its C-2 aryloxy isomer (~2:1).

Substrate in series [4]: O=[N+]([O-])c1ccc(O[C@H]2O[C@H](CO)[C@H](O)[C@H](O)[C@H]2O)cc1
Particulars: 50 mM HEPES pH 7.4, 37 °C, acid/base mutant.

B1: TmGalA (Thermotoga maritima MSB8) (protein)
chain: MEIFGKTFREGRFVLKEKNFTVEFAVEKIHLGWKISGRVKGSPGRLEVLRTKAPEKVLVNNWQSWGPCRVVDAFSFKPPEIDPNWRYTASVVPDVLERNLQSDYFVAEEGKVYGFLSSKIAHPFFAVEDGELVAYLEYFDVEFDDFVPLEPLVVLEDPNTPLLLEKYAELVGMENNARVPKHTPTGWCSWYHYFLDLTWEETLKNLKLAKNFPFEVFQIDDAYEKDIGDWLVTRGDFPSVEEMAKVIAENGFIPGIWTAPFSVSETSDVFNEHPDWVVKENGEPKMAYRNWNKKIYALDLSKDEVLNWLFDLFSSLRKMGYRYFKIDFLFAGAVPGERKKNITPIQAFRKGIETIRKAVGEDSFILGCGSPLLPAVGCVDGMRIGPDTAPFWGEHIEDNGAPAARWALRNAITRYFMHDRFWLNDPDCLILREEKTDLTQKEKELYSYTCGVLDNMIIESDDLSLVRDHGKKVLKETLELLGGRPRVQNIMSEDLRYEIVSSGTLSGNVKIVVDLNSREYHLEKEGKSSLKKRVVKREDGRNFYFYEEGERE
B1: the Km in series [1] amounted to 253 ± 8 µM; in series [2], 4.1 ± 0.9 µM; in series [3], 1.68 ± 0.14 µM. The catalytic constant (kcat) in series [2] worked out at 0.000229 ± 1.1e-05 s⁻¹. The specificity constant (kcat/Km) in series [2] worked out at 56 ± 13 M⁻¹ s⁻¹.

B2: TmGalA (Thermotoga maritima MSB8; D387A) (protein)
chain: MEIFGKTFREGRFVLKEKNFTVEFAVEKIHLGWKISGRVKGSPGRLEVLRTKAPEKVLVNNWQSWGPCRVVDAFSFKPPEIDPNWRYTASVVPDVLERNLQSDYFVAEEGKVYGFLSSKIAHPFFAVEDGELVAYLEYFDVEFDDFVPLEPLVVLEDPNTPLLLEKYAELVGMENNARVPKHTPTGWCSWYHYFLDLTWEETLKNLKLAKNFPFEVFQIDDAYEKDIGDWLVTRGDFPSVEEMAKVIAENGFIPGIWTAPFSVSETSDVFNEHPDWVVKENGEPKMAYRNWNKKIYALDLSKDEVLNWLFDLFSSLRKMGYRYFKIDFLFAGAVPGERKKNITPIQAFRKGIETIRKAVGEDSFILGCGSPLLPAVGCVDGMRIGPATAPFWGEHIEDNGAPAARWALRNAITRYFMHDRFWLNDPDCLILREEKTDLTQKEKELYSYTCGVLDNMIIESDDLSLVRDHGKKVLKETLELLGGRPRVQNIMSEDLRYEIVSSGTLSGNVKIVVDLNSREYHLEKEGKSSLKKRVVKREDGRNFYFYEEGERE
As to B2, in series [4], the Michaelis constant (Km) came to 184 ± 7 µM, the turnover number (kcat) turned out to be 0.036 s⁻¹ and the specificity constant (kcat/Km) is 196 M⁻¹ s⁻¹.
